Data as given in patent publication EP4545559A2 (INSTITUTO BUTANTAN, dated 2025).
Like-named read-outs stand apart in the source and are kept apart here.

Columns and labels:
RBD WT (original Wuhan) [1] = target: T1, RBD WT (original Wuhan) (SARS-CoV-2, UniProt P0DTC2 319-541)
RBD WT (original Wuhan) [2] = target: T1, RBD WT (original Wuhan); remark: listed apart in the source
RBD WT (original Wuhan) [3] = target: T1, RBD WT (original Wuhan); remark: listed apart in the source
RBD WT (original Wuhan) [4] = target: T1, RBD WT (original Wuhan); remark: listed apart in the source
RBD WT (original Wuhan) [5] = target: T1, RBD WT (original Wuhan); remark: listed apart in the source

B1: Monoclonal antibody S.9.2.D7 (antibody, V domains shown)
VH: EVQLLESGGGLIQTGGSLRLSCAASGFTFSSYAMSWVRQAPGKGLEWVSVISDSGGSTYYADSVKGRLTISRDNSKNTLYVQMNSLRAEDTAVYYCAKGKGGIAAAGPAFLFDYWGQGTLVTVSS
VL: DIQMTQSPSLLSASAGDRVTISCRMSQGISSYLAWYQQKPGKAPELLISSASTLQSGVPSRFSGSGSGTDFTLTISYLQSEDFATYYCQQYYSFPTTFGGGTKVEIK
notes: also called mAb S.9.2.D7
RBD WT (original Wuhan) [1]
  Kd: 4850 pM

B2: Monoclonal antibody S.9.2.B8 (antibody, V domains shown)
VH: EVQLVETGGGLIQPGGSLRLSCAASGLIVSSNYMTWVRQAPGKGLEWVSVLYSGGTTYYADSVKGRVTISRDNSKNTLYLQVNSLTVADTAVYYCARDLADRGGMDVWGQGTTVTVSS
VL: SYELTQPPSVSVAPGQTARITCGGNNIGSQSVHWYQQKPGQAPVLVVYDDSDRPSGIPERFSGSKSGNMATLTISRVEAGDEADYYCQVWDSSSDHVVFGGGTKLTVL
notes: also called mAb S.9.2.B8
RBD WT (original Wuhan) [2]
  Kd: 1990 pM

B3: Monoclonal antibody S.9.4.C7 (antibody, V domains shown)
VH: QVQLVESGGGVVQPGRSLRLSCAASGFTFRNYAMHWVRQAPGKGLEWVTVISYDGSDKYYADSVKGRFTISRDNSKNTLYLQMNSLRAEDTAVYYCAKDPVGGYCSGGRCYFHSHYFDYWGQGTLVTVSS
VL: NFMLTQPHSVSESPGKTVTISCTRSSGSIASYYVQWYQQRPGSSPTTVISEDNQRPSGVPDRFSGSIDSSSNSASLTISGLKTEDEADYYCQSYDSNNHVIFGGGTKLTVL
notes: also called mAb S.9.4.C7
RBD WT (original Wuhan) [3]
  Kd: 40.7 pM

B4: Monoclonal antibody S.9.1.C9 (antibody, V domains shown)
VH: QVQLVESGGGVVQPGRSLGLSCAVSGFTFSNYGMDWVRQAPGKGLEWVAVTSYDGSNKYYADSVKGRFTISRDNSKNTLYLQMNSLRTEDTAVYYCAKHGGGPYCGGGTCYLAYFDYWGQGTLVTVSS
VL: DIQMTQSPSSLSASVRDRVTITCQASQDISKFLNWYQQKPGKAPKLLIYDASNLETGVPSRFSGSGSGTDFTFTISSLQPEDIATYYCQQYDNLPITFGQGTRLEIKR
notes: also called mAb S.9.1.C9
RBD WT (original Wuhan) [4]
  Kd: 214 pM

B5: Monoclonal antibody S.9.4.F4 (antibody, V domains shown)
VH: QVQLVESGGGVVQPGRSLRLSCAASGFTFSHYGMHWVRQAPGKGLEWVAVILYDGSNEYYADSVKGRFTISRDNSKNTLYLQMNSLRAEDTAVYYCAKGAGTYCSGGNCYVAYFDYWGQGTLVTVSS
VL: AIRMTQSPSSLSASVGDRVTITCQASQDISNYLNWYQQKPGKAPKLLIYDASNLETGVPSRFSGSGSGTDFTVTISSLQPEDFATYYCQQYDNLPLTFGGGTKVEIK
notes: also called mAb S.9.4.F4
RBD WT (original Wuhan) [5]
  Kd: ~33.6 pM
